# Results from PMC4763257, “A replaceable liposomal aptamer for the ultrasensitive and rapid detection of biotin”.
# Target: streptavidin (UniProt P22629 25-183)
# Test: plate binding assay, liposome SRB fluorescence; at least 10-fold over aptamer-free liposomes; displaced by biotin; Streptavidin (10 ug/ml) coated plate, blocked with 1% BSA and 0.01 mg/ml salmon sperm DNA in TBS; 80 ul liposomal aptamer 1 h at RT; washes in TBS-sucrose; pH and salt not given
# Details: protein: commercial; chain copies: 4; label: SRB-encapsulating liposome
# Chain of streptavidin (P22629 25-183): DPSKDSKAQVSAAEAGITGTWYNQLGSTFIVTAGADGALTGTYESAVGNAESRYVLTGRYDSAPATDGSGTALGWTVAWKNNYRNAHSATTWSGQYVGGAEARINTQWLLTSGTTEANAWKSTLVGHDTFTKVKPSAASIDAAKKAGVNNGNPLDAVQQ
row,Binder,binding result
1,"ATTGACCGCTGTGTGACGCAACACTCAAT (structured_DNA, 3'-TEG-cholesterol) [ST-21 liposomal aptamer]",binds
2,"ATTGACCTCTGTGTGACGCAACACTCAAT (structured_DNA, 3'-TEG-cholesterol) [ST-21M liposomal aptamer]",binds
